Results on one molecule are retold here after patent US20230173042A1, “METHODS OF TREATMENT WITH ASPARAGINASE” (JAZZ PHARMACEUTICALS IRELAND LTD., priority 2017, published 2023).

For data set [1] the following is noted: PEGylated enzyme relative to unmodified enzyme; cited from earlier work.
For data set [2] the following is noted: children who received the drug; cited from earlier work.
For the next data set, the system named is KG-1. In words: Oncolines cell proliferation assay (ATP luminescence). The note with it: KG-1, acute myelogenous leukemia (AML). It counts as cell-based. How it is done: (§1) Cell preparation. All cell lines have been licensed from the American Type Culture Collection (ATCC) Manassas, Va. (US). Master and Working Cell banks (MCB and WCB) were prepared by subculturing in ATCC-recommended media and freezing according to ATCC recommended protocols (www.atcc.org).
(§2) Compound preparation. Test compounds were prepared as stock solutions in DMSO or aqueous buffers as appropriate and serially diluted to obtain a dilution series.
(§3) Cell proliferation assay. Cell proliferation was assessed using a commercially available luminescence assay using ATP as the endpoint.
(§4) Controls. t=0 signal. On a parallel plate, 45 μl cells were dispensed and incubated in a humidified atmosphere of 5% CO2 at 37° C. After 24 hours 5 μl DMSO-containing Hepes buffer and 25 μl ATPlite 1Step™ solution were mixed, and luminescence measured after 10 minute incubation (=luminescencet=0).
(§5) Reference compound. The IC50 of the reference compound doxorubicin is measured on a separate plate. The IC50 is trended. If the IC50 is out of specification (0.32-3.16 times deviating from historic average) the assay is invalidated.
(§6) Cell growth control. The cellular doubling times of all cell lines are calculated from the t=0 hours and t=end growth signals of the untreated cells. If the doubling time is out of specification (0.5-2.0 times deviating from historic average) the assay is invalidated.
(§7) Maximum signals. For each cell line, the maximum luminescence was recorded after incubation until t=end without compound in the presence of 0.4% DMSO (=luminescenceuntreated,t=end).
(§8) IC50 were calculated by non-linear regression using IDBS XLfit. The percentage growth after incubation until t=end (%-growth) was calculated as follows: 100%×(luminescencet=end/luminescenceuntreated,t=end). This was fitted to the ^10log compound concentration (conc) by a 4-parameter logistics curve: %-growth=bottom+(top−bottom)/(1+10^(logIC50-conc)*hill)) where hill is the Hill-coefficient, and bottom and top the asymptotic minimum and maximum cell growth that the compound allows in that assay.
(§9) NCI60 parameters. The LD50, the concentration at which 50% of cells die, is the concentration where luminescencet=end=½×luminescencet=0h. […] This is concentration associated with the signal: ((luminescenceuntreated,t=end−luminescencet=0)/2)+luminescencet=0.
(§10) Curve fitting. […] The hill was fixed on −6 when the software calculated a lower value. […] Incidentally, when technical failures were likely, concentration points were knocked out.
(§11) The special volcano plot of FIG. 9 relates compound sensitivity (as measured by ^10logIC50) to the presence of cancer hotspot mutations. […] The hotspot mutations were derived from statistical analyses of the recurrence patterns of mutations and copy number alterations in patients through separate studies. Axes and statistical analyses are identical to the volcano plot of FIG. 8. The cutoff p-level for significance is 0.32. […] Effect20 For determination of the effect of the compound on the activity of other anti-cancer agents in SynergyScreen™ experiments, a low, fixed concentration is used, corresponding to the concentration at which cell growth is inhibited by 20%.

Another data set has as its system HL-60. Described as above. It counts as cell-based. The note with it: HL-60, acute promyelocytic leukemia. How it is done:
as §1, §2, §3, §4, §5, §6, §7, §8, §9, §10, §11

In another data set the test system is MV-4-11. The description is as above. The note with it: MV-4-11, biphenotypic B myelomonocytic leukemia. It counts as cell-based. How it is done:
as §1, §2, §3, §4, §5, §6, §7, §8, §9, §10, §11

The subject of another data set is HT. Described as above. It counts as cell-based. The note with it: diffuse mixed lymphoma, B lymphoblast. On the procedure:
as §1, §2, §3, §4, §5, §6, §7, §8, §9, §10, §11

A further data set concerns MOLT-4. The data set is described as above. It counts as cell-based. The note with it: MOLT-4, acute lymphoblastic leukemia (ALL). How it is done:
as §1, §2, §3, §4, §5, §6, §7, §8, §9, §10, §11

A further data set concerns THP-1. The data set is described as above. Type of data set: cell-based. The note with it: THP-1, acute monocytic leukemia. How it is done:
as §1, §2, §3, §4, §5, §6, §7, §8, §9, §10, §11

Another data set has as its system RL. The description is as above. It counts as cell-based. The following applies: non-Hodgkin's lymphoma, B lymphoblast. On the procedure:
as §1, §2, §3, §4, §5, §6, §7, §8, §9, §10, §11

The next data set has as its system DB. Described as above. The following applies: large cell lymphoma, B lymphoblast. It counts as cell-based. On the procedure: as §1, §2, §3, §4, §5, §6, §7, §8, §9, §10, §11
Another data set relates to U-87-MG. Described as above. The note with it: glioblastoma, brain. Type of data set: cell-based. On the procedure: as §1, §2, §3, §4, §5, §6, §7, §8, §9, §10, §11
The next data set concerns HT-1080. The data set is described as above. Type of data set: cell-based. The note with it: HT-1080, fibrosarcoma. On the procedure: as §1, §2, §3, §4, §5, §6, §7, §8, §9, §10, §11

B1: Oncaspar: E. coli L-asparaginase modified at multiple lysine residues using 5 kDa mPEG-succinimidyl succinate (conjugate, UniProt P00805 23-348, looked up)
L-asparaginase 2: LPNITILATGGTIAGGGDSATKSNYTVGKVGVENLVNAVPQLKDIANVKGEQVVNIGSQDMNDNVWLTLAKKINTDCDKTDGFVITHGTDTMEETAYFLDLTVKCDKPVVMVGAMRPSTSMSADGPFNLYNAVVTAADKASANRGVLVVMNDTVLDGRDVTKTNTTDVATFKSVNYGPLGYIHNGKIDYQRTPARKHTSDTPFDVSKLNELPKVGIVYNYANASDLPAKALVDAGYDGIVSAGVGNGNLYKSVFDTLATAAKTGTAVVRSSRVPTGATTQDAEVDDAKYGFVASGTLNPQKARVLLQLALTQTKDPQQIQQIFNQY
modifications: 5 kDa mPEG-succinimidyl succinate on lysines
notes: E. coli L-asparaginase modified at multiple lysine residues using 5 kDa mPEG-succinimidyl succinate
As for B1, the “in vitro activity compared to the unmodified L-asparaginase” value in [1] is recorded as “approximately 50%”. Also, in data set [2], the “children who had an allergic reaction” value is on record as 30-41%. Moreover, the “Effect20 (concentration at which cell growth is inhibited by 20%)” value in the data set on KG-1 is listed as 0.0001 IU/mL; in the data set on HL-60 it was 0.0003 IU/mL; in the data set with MV-4-11, 0.26 IU/mL; with HT, 0.28 IU/mL; with MOLT-4, 0.00019 IU/mL; with THP-1, 0.31 IU/mL. Further, the “Effect20 (concentration at which cell growth is inhibited by 20%)” value with RL is recorded as 0.37 IU/mL; in the data set on DB it was 0.47 IU/mL; with U-87-MG it was 0.4 IU/mL; in the data set on HT-1080, 0.00025 IU/mL.
